Like-named read-outs stand apart in the source and are kept apart here.
Assays:
[1] = biological target: dimAβ (dimeric Aβ variant: two Aβ40 units linked in one polypeptide chain through a flexible glycine-serine-rich linker) (UniProt P05067); experiment: ThT fluorescence aggregation kinetics; dimAβ at pH 5.6, concentrations down to 0.4 µM, 37 °C, 150 mM NaCl
[2] = biological target: dimAβ (dimeric Aβ variant: two Aβ40 units linked in one polypeptide chain through a flexible glycine-serine-rich linker) (UniProt P05067); experiment: ThT fluorescence aggregation kinetics; dimAβ at pH 7.4, concentration series, 37 °C, 150 mM NaCl, 1 µM ThT, microplate; lag-free oligomerization phase above the critical oligomer concentration
[3] = biological target: dimAβ (dimeric Aβ variant: two Aβ40 units linked in one polypeptide chain through a flexible glycine-serine-rich linker) (UniProt P05067); experiment: as above; remark: listed apart in the source

critical oligomer concentration (COC) at pH 5.6 [1]: < 0.4 µM
critical oligomer concentration (COC) [2]: 1.5 µM
critical oligomer concentration (COC) [3]: 1 µM
Substance: dimAβ (dimeric Aβ variant: two Aβ40 units linked in one polypeptide chain through a flexible glycine-serine-rich linker) (from UniProt P05067 672-711; P05067 672-711)

From article PMC8324842
